These results are taken from US20200283519A1 (IMCHECK THERAPEUTICS, published 2020).

The target of experiment [1] is T1, human BTN2A2 expressed on HEK293F cells transfected with BTN2A2-Flag plasmid (human, UniProt Q8WVV5 33-523).
T1 construct: HEK293F cells here are not knocked out for endogenous BTN2/BTN3; also called HEK-BTN2 cells; not shown: Flag tag
T1 sequence: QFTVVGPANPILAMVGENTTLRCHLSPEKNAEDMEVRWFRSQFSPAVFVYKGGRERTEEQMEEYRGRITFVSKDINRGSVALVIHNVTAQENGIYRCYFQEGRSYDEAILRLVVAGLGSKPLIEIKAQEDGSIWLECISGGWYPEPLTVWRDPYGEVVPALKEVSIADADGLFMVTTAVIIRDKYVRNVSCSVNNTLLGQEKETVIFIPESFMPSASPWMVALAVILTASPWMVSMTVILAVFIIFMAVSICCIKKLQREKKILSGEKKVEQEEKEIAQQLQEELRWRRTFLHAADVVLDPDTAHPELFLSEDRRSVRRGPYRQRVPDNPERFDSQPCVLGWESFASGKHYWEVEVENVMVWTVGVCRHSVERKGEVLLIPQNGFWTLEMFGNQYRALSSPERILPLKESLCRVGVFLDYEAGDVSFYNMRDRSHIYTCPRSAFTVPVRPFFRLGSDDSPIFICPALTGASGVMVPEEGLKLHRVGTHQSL
The experiment is described as follows: flow cytometry titration on HEK293F cells transfected with BTN2A2-Flag. In general terms: A flow cytometer gives signals particle by particle.

For experiment [2], the target named is T2, human BTN2A1 CFP(Nter)-fusion protein expressed on 293F BTN3/BTN2 KO cells (human, UniProt Q7KYR7 29-527).
T2 construct: also called pcDNA3-Zeo-BTN2A1-CFP; not shown: CFP fused at the N-terminus (CFP(Nter)-fusion)
T2 sequence: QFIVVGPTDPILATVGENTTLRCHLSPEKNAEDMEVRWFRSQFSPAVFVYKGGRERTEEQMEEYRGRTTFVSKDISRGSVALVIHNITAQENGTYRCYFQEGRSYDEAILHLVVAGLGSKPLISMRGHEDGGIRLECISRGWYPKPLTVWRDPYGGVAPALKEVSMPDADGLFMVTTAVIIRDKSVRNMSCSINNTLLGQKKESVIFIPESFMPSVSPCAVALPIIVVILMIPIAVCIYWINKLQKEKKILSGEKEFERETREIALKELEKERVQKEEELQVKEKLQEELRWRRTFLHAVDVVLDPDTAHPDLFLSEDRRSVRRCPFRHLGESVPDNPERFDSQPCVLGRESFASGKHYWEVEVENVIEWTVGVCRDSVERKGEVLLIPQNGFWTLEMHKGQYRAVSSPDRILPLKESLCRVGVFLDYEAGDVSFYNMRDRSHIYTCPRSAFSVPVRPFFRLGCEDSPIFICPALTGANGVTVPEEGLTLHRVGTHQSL
The experiment is described as follows: flow cytometry (PE MFI in CFP-positive cells) on 293F BTN3/BTN2 KO cells transfected with BTN2A1-CFP. The procedure:
(§1) HEK-293F cells bearing CRISPR-Cas9-mediated deletions of all isoforms of BTN3 and BTN2 (293F BTN3/BTN2 KO) were generated (data not shown), cultured in DMEM (Life Technologies) 10% fetal bovine serum (FBS, Gibco) 1 mM sodium pyruvate (Thermofisher scientific), and transfected independently with pcDNA3-Zeo-BTN2A1-CFP or pcDNA3-Zeo-BTN2A2-CFP, which encode BTN2A1 and BTN2A2 CFP(Nter)-fusion proteins, using Lipofectamine 2000 reagent (Thermofisher scientific) according to manufacturer's instructions.
(§2) Twenty-four hours after transfection, cells (5×10⁴/sample) were collected and stained in duplicate with the indicated concentrations (2-fold dilutions starting from 20 μg/mL to 64 pg/mL) of all 7 purified anti-human BTN2 mAbs in 50 μL of staining buffer (DPBS1X (Thermofisher scientific) 1% FBS, 1 mM EDTA (Thermofisher scientific)) during 30 minutes at 4° C. Equal concentrations of mouse IgG1 antibody (Miltenyi) were used as isotype control for staining. Then, cells were washed twice with 200 μL of staining buffer, and incubated with a 1:200 dilution of goat anti-mouse Ig-PE conjugated (Jackson Immunoresearch) in staining buffer for 30 min at 4° C. in the dark. Finally, cells were washed twice in staining buffer prior to fixation using BD Cytofix reagent (BD Bioscience) according to manufacturer's instructions. Mean fluorescence intensity (MFI) on PE channel within the CFP-positive population was assessed for each sample in a Cytoflex LX (Beckman Coulter), and analyzed with a FlowJo V10.4.2 software (FlowJo, LLC 2006-2018).

The target of experiment [3] is T2, human BTN2A1 CFP(Nter)-fusion protein …. The experiment is described as follows: flow cytometry on BTN2A1-transfected 293F BTN3/BTN2 KO cells (summary table, repeats the 7th table). As for the experimental part:
as §1, §2

For experiment [4], the target named is T1, human BTN2A2 expressed on HEK293F cells …. As to the kind of experiment: flow cytometry on HEK-BTN2 cells (summary table, repeats the 5th table).
Experiment [5] deals with T3, human BTN2A2 CFP(Nter)-fusion protein expressed on 293F BTN3/BTN2 KO cells (human, UniProt Q8WVV5 33-523).
T3 construct: also called pcDNA3-Zeo-BTN2A2-CFP; not shown: CFP fused at the N-terminus (CFP(Nter)-fusion)
T3 sequence: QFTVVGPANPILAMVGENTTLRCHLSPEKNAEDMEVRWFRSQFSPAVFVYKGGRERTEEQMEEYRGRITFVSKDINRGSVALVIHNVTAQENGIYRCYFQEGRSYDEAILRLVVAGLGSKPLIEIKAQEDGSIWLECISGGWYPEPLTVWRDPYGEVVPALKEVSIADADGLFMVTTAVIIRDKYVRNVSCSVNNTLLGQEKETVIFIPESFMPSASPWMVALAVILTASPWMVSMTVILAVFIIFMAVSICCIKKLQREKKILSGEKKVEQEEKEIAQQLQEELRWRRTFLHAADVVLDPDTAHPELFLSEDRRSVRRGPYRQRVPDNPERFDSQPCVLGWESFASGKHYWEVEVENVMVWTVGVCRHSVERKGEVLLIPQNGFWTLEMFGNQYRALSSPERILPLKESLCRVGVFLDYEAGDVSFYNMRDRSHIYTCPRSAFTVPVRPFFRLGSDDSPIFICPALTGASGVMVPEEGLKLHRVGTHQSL
The experiment is described as follows: flow cytometry on BTN2A2-transfected 293F BTN3/BTN2 KO cells (summary table, repeats the 7th table). As for the experimental part:
as §1, §2

The target in experiment [6] is T3, human BTN2A2 CFP(Nter)-fusion protein …. As to the kind of experiment: flow cytometry (PE MFI in CFP-positive cells) on 293F BTN3/BTN2 KO cells transfected with BTN2A2-CFP. As for the experimental part: as §1, §2
Experiment [7] has the same target. The experiment is described as follows: flow cytometry on 293F BTN3/BTN2 KO cells transfected with BTN2A2-CFP. As for the experimental part:
as §1
as §2, with “Finally, cells were washed twice in staining buffer prior to fixation using BD Cytofix reagent (BD Bioscience) according to manufacturer's instructions.” left out

In experiment [8] the target is T2, human BTN2A1 CFP(Nter)-fusion protein …. The experiment is described as follows: flow cytometry on 293F BTN3/BTN2 KO cells transfected with BTN2A1-CFP. As for the experimental part: as §1
as §2, with “Finally, cells were washed twice in staining buffer prior to fixation using BD Cytofix reagent (BD Bioscience) according to manufacturer's instructions.” left out

Experiment [9] has as its target T1, human BTN2A2 expressed on HEK293F cells …. As to the kind of experiment: flow cytometry on HEK293F cells transfected with BTN2A2-Flag. As for the experimental part:
FIG. 1: Binding of BTN2 mAbs on HEK293F cells. HEK293F cells were transfected with BTN2A2-Flag plasmid. At day 1 after transfection, BTN2A2 transfected HEK293F cells (A) and non-transfected HEK293F cells (B) were stained with purified mouse anti-human BTN2 mAbs for 20 min at 4° C. Monoclonal Anti-Flag antibody serves as positive control for transfection. After 2 washes, cells were incubated with a secondary goat anti-mouse IgG PE for 20 min at 4° C. and a marker for cell viability. Cells were acquired on a LSRFortessa (BD) and analyzed with FlowJo (TreeStar).

B1: mAb5 (mouse anti-human BTN2 mAb 8.15) (antibody, V domains shown)
VH: EVKLLESGGGLVQPGGSLKLSCAASGFDFSGYWMTWVRQAPGKGLEWIGEINPDSSTINYTPSLRDKFIISRDNAKNTLYLQMSKVRSEDTALYFCARGSYYPSYWGQGTLVTVSA
VL: DIVLTQSPASLAVSLGQRATISCRASKSVSSSGYSYMNWYQQKPGQPPKLLIYLASNLESGVPARFSGSGSGTDFTLNIHPVEDEDAATYYCQHSRELPHTFGGGTKLEIK
notes: Mouse IgG1 purified from hybridoma supernatant; also called CNCM I-5235
As usually defined, the EC50 is the concentration at which the effect is half-maximal. With B1, the EC50 in experiment [1] is 0.1 µg/mL; in [2], 0.08 µg/mL; in experiment [3], 0.08 µg/mL; in experiment [4], 0.1 µg/mL; in experiment [5], 0.5 µg/mL; in [6] it was 0.5 µg/mL.

B2: mAb6 (mouse anti-human BTN2 mAb 8.16) (antibody, V domains shown)
VH: EVKLLESGGGLVQPGGSLKLSCAASGFDFSGYWMTWVRQAPGKGLEWIGEINPDSSTINYTPSLRDKFIISRDNAKNTLYLQMSKVRSEDTALYFCARGSYYPSYWGQGTLVTVSA
VL: DIVLTQSPASLAVSLGQRATISCRASKSVSSSGYSYMNWYQQKPGQPPKLLIYLASNLESGVPARFSGSGSGTDFTLNIHPVEDEDAATYYCQHSRELPHTFGGGTKLEIK
notes: Mouse IgG1 purified from hybridoma supernatant; also called CNCM I-5236
For B2, the EC50 came out at 0.11 µg/mL in experiment [1]; 0.08 µg/mL in experiment [2]; 0.08 µg/mL in [3]; 0.11 µg/mL in [4]; 2.4 µg/mL in experiment [5]; 2.4 µg/mL in experiment [6].

B3: mAb4 (mouse anti-human BTN2 mAb 7.48) (antibody, V domains shown)
VH: EVQLVESGGDLVKPGGSLKLSCAASGFTFSDFYMYWVRRTPEKRLEWVATISDGGSHTYYPDSVKGRFTISRDNAKNNLYLQMRSLKSEDTAMYYCGRDTTIITPYWGQGTLVTVSA
VL: QSVVTQESALTTSPGETVTLTCRSSTGAVTTSNYANWVQEKPDHLFTGLIGGTNNRAPGVPARFSGSLIGDKAALTITGAQTEDEAIYFCGLWYSNHWVFGGGTKLTVL
notes: Mouse IgG1 purified from hybridoma supernatant; also called CNCM I-5234
Turning to B3, the 50% effective concentration (EC50) was determined as 0.08 µg/mL in [1]; 0.02 µg/mL in [2]; 0.02 µg/mL in [3]; 0.08 µg/mL in experiment [4]; 0.01 µg/mL in experiment [5]; 0.01 µg/mL in experiment [6].

B4: mAb3 (mouse anti-human BTN2 mAb 7.28) (antibody, V domains shown)
VH: QVHLQQSGAELMKPGASVKISCKATGYTFSSYWIEWVKQRPGHGREWIGEILPGSGSTKYNEKFRGKATFAADTSSNTAYVQLSSLTSEDSAVYYCARLKGYYGGGAMDYWGQGTSVTVSS
VL: DVQITQSPSYLAASPGETITINCRASKSISKYLAWYQEKPGKTNELLIYSGSTLQSGIPSRFSGSGSGTDFTLTISSLEPEDFAMYYCQQHNEYPWTFGGGTKLEIK
notes: Mouse IgG1 purified from hybridoma supernatant; also called CNCM I-5233
As to B4, the 50% effective concentration (EC50) stood at 31.3 µg/mL in experiment [1]; 0.02 µg/mL in experiment [2]; 0.02 µg/mL in experiment [3]; 31.3 µg/mL in experiment [4]; 11.8 µg/mL in [5]; 11.8 µg/mL in [6].

B5: mAb7 (mAb 8.33, comparative control antibody) (antibody, V domains shown)
VH: DVQLQESGPGLVKPSQSLSLTCSVTGYSITSGYYWNWIRQFPGNKLEWMGYISYDGNNNYNPSLKNRISITRDTSKNQFFLKLNSVTTEDTATYYCASPLYDGYYWYFDVWGAGTTVTVSS
VL: ETTVTQSPASLSLAIGEKVTIRCITSTDIDDDMNWYQQKPGEPPKLLISEANTLRPGVPSRFSSSGRGTDFVFTIENMLSEDVADYYCLQSDNLPYTFGGGTKLEIK
notes: Mouse IgG1 purified from hybridoma supernatant; also called CNCM I-5237
For the molecule B5, the binding result in [7], in experiment [8] and in experiment [9] was “no binding” in each case.

B6: mAb1 (mouse anti-human BTN2 mAb 4.15) (antibody, V domains shown)
VH: QVQLQQSGAELVKPGASVKLSCKASGYIFTSYDINWVRQRPEQGLEWIGWIFPGDDSIIQNEKFKGKATLTTDKSSSTVYMQLSRLTSEDSAVYFCARLGPLRGFTYWGQGTLVTVSA
VL: DIVLTQSPASLAVSLGQRATISCRASESVDRYGSSFMHWYQQKPGQPPKLLIYRASNLESGIPARFSGSGSRTDFTLTINPVEADDVATYYCQQSNEDPWTFGGGTKLEIK
notes: Mouse IgG1 purified from hybridoma supernatant; also called CNCM I-5231
As to B6, the concentration giving a half-maximal response (EC50) in experiment [1] was found to be 0.07 µg/mL; in [2] it was 0.06 µg/mL; in [3] it was 0.06 µg/mL; in [4], 0.07 µg/mL; in experiment [5], 0.01 µg/mL; in experiment [6] it was 0.01 µg/mL.

B7: mAb2 (mouse anti-human BTN2 mAb 5.28) (antibody, V domains shown)
VH: QIQLVQSGPELKKPGETVKISCKASGYTFTDYSMNWVKQAPGKGLKWVGRINTETGEPTYADDFKGRFAFSLETSASTAYLQIKNLKNEDTATYFCVRDYAKRWGQGTSVTVSS
VL: DIVMTQSHKFMSTSVGDRVSITCKASQDVITAVAWYQQKPGQSPKLLIYSTSYRYTGVPDRFTGSGSGTDFTFTISSVQAEDLAVYYCLQHYTTPWTFGGGTKLEIK
notes: Mouse IgG1 purified from hybridoma supernatant; also called CNCM I-5232
For B7, the EC50 in [1] came out at 0.07 µg/mL; in [2], 0.04 µg/mL; in experiment [3], 0.04 µg/mL; in experiment [4], 0.07 µg/mL; in [5], 0.01 µg/mL; in [6] it was 0.01 µg/mL.
